From patent US20230128688A1 (published 2023)

Legend:
CD20 [1] = target: T1, CD20 (UniProt P11836 1-297, limits assumed); test: Octet bio-layer interferometry, Protein A biosensors
T1 construct: Used in the Octet assay with Protein A biosensors
T1 sequence (looked up): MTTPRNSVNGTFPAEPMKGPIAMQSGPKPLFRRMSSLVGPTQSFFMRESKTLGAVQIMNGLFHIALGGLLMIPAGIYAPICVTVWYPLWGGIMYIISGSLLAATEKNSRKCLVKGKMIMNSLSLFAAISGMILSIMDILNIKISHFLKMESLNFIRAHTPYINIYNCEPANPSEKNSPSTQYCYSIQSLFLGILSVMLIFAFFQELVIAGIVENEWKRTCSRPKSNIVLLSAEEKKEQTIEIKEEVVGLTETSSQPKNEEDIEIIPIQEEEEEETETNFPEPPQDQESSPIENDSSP

CD20 [2] = target: T1, CD20; test: Octet bio-layer interferometry, Protein A biosensors, 1:1 global fit

B1: III-1 (CD20×CD3; rituximab×SP34 scFv) (bispecific antibody)
chain 1: QVQLQQPGAELVKPGASVKMSCKASGYTFTSYNMHWVKQTPGRGLEWIGAIYPGNGDTSYNQKFKGKATLTADKSSSTAYMQLSSLTSEDSAVYYCARSTYYGGDWYFNVWGAGTTVTVSA
chain 2: QIVLSQSPAILSASPGEKVTMTCRASSSVSYIHWFQQKPGSSPKPWIYATSNLASGVPVRFSGSGSGTSYSLTISRVEAEDAATYYCQQWTSNPPTFGGGTKLEIK
chain 3: EVQLVESGGGLVQPGGSLKLSCAASGFTFNTYAMNWVRQAPGKGLEWVGRIRSKYNNYATYYADSVKGRFTISRDDSKNTLYLQMNSLRAEDTAVYYCVRHGNFGNSYVSWFAYWGQGTLVTVSSGGGGSGGGGSGGGGSQAVVTQEPSLTVSPGGTVTLTCGSSTGAVTTSNYANWVQQKPGQAPRGLIGGTNKRAPGVPARFSGSLLGGKAALTLSGAQPEDEAEYYCALWYSNLWVFGGGTKLTVLGSEQKLISEEDLGSGGGGSLPET
modifications: C-terminal LPETG sortase tag joined through the (G)5-PEG linker from I-53 to a lysine of rituximab
Kd (CD20 [1]): 0.75 nM
Kd (CD20 [2]): 1.06 nM
